Residue numbers refer to the chain shown, from its start. Like-named read-outs stand apart in the source and are kept apart here.
T1: LUXMYB (UniProt Q9SNB4 139-200)
T1 sequence: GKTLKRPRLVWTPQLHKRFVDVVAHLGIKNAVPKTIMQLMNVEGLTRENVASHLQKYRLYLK

T2: LUXMYB R146A (UniProt Q9SNB4 139-200, R146A)
T2 sequence: T1 sequence with R8A

T3: LUXFL (UniProt Q9SNB4 1-323)
T3 sequence: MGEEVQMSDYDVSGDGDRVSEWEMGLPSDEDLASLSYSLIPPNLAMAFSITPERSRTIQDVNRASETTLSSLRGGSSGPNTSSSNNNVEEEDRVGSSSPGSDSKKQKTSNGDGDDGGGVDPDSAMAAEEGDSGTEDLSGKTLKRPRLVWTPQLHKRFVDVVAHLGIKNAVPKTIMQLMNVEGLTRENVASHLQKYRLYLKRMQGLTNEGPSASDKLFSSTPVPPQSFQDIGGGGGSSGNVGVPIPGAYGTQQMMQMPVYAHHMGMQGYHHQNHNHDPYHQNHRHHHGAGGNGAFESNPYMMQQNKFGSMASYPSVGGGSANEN

T4: LUXFL R146A (UniProt Q9SNB4 1-323, R146A)
T4 sequence: T3 sequence with R146A

T5: ELF3 (UniProt O82804 1-695)
T5 sequence: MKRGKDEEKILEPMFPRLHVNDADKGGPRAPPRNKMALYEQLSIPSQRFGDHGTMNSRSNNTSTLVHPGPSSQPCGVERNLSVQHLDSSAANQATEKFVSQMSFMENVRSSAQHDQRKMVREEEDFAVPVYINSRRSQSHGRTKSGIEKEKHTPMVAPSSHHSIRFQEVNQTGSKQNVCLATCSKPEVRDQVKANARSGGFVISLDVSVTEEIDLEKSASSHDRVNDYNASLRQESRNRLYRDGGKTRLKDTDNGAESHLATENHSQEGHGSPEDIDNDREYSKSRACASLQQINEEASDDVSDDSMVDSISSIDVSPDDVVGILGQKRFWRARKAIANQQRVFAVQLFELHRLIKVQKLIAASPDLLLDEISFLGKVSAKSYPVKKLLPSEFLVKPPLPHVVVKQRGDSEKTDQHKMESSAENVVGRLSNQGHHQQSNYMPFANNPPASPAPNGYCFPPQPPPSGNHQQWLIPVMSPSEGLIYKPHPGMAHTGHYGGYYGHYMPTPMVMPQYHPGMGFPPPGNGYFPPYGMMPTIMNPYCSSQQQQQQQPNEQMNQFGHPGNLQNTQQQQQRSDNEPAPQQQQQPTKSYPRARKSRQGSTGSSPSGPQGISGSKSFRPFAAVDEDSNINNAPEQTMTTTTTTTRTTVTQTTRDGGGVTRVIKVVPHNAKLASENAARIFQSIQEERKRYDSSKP

T6: ELF4 (UniProt O04211 1-111)
T6 sequence: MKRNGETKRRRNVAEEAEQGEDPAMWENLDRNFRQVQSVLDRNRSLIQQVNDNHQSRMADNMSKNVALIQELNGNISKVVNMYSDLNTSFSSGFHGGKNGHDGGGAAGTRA

T7: LUXFL;ELF3;ELF4 (Arabidopsis thaliana?;Arabidopsis …, UniProt Q9SNB4;O82804;O04211 1-323;1-695;1-111, ||)
T7 sequence 1: T3 sequence
T7 sequence 2: T5 sequence
T7 sequence 3: T6 sequence

T8: EARLY FLOWERING 3, full-length (Arabidopsis, UniProt O82804 1-695)
T8 sequence: T5 sequence

B1: crystal 10-mer AGATACGC (dsDNA)
DNA 1: TAGATACGCA
DNA 2: ATGCGTATCT
B2: Oligo 4 (GGATCCGA) (dsDNA)
DNA 1: ATGATGTCTTCTCGGATCCGATAAAAATGGTGTTG
DNA 2: CAACACCATTTTTATCGGATCCGAGAAGACATCAT
B3: Oligo 1 (PRR9 36 bp) (dsDNA)
DNA 1: ATGATGTCTTCTCAAGATTCGATAAAAATGGTGTTG
DNA 2: CAACACCATTTTTATCGAATCTTGAGAAGACATCAT
B4: Oligo 2 (AGATACGC) (dsDNA)
DNA 1: B3 DNA 1 with T19A, A22C
DNA 2: B3 DNA 2 with T15G, A18T
B5: Oligo 3 (AAGATCTT) (dsDNA)
DNA 1: B3 DNA 1 with T19C, C20T, G21T
DNA 2: B3 DNA 2 with C16A, G17A, A18G
B6: Oligo 5 (ATATTCGA) (dsDNA)
DNA 1: ATGATGTCTTCTCGAATATTCGATAAAAATGGTGTTG
DNA 2: CAACACCATTTTTATCGAATATTCGAGAAGACATCAT
B7: EARLY FLOWERING 4 (natural protein)
chain: T6 sequence
B8: crystal 10-mer ATATTCGA (dsDNA)
DNA 1: TATATTCGAA
DNA 2: ATTCGAATAT

Assays:
LUXMYB [1] = target: T1, LUXMYB; experiment: crystal structure
LUXMYB R146A = target: T2, LUXMYB R146A; experiment: EMSA
LUXFL = target: T3, LUXFL; experiment: EMSA
LUXFL R146A = target: T4, LUXFL R146A; experiment: EMSA
LUXMYB [2] = target: T1, LUXMYB; experiment: EMSA
ELF3 = target: T5, ELF3; experiment: EMSA
ELF4 = target: T6, ELF4; experiment: EMSA
LUXFL;ELF3;ELF4 = target: T7, LUXFL;ELF3;ELF4; experiment: EMSA
[3] = target: T8, EARLY FLOWERING 3, full-length; experiment: native gel or EMSA
LUXMYB [4] = target: T1, LUXMYB; experiment: crystal structure; remark: listed apart in the source

Binder	Kd (LUXMYB R146A) [nM]	Kd (LUXFL) [nM]	Kd (LUXFL R146A) [nM]	Kd (LUXMYB [2]) [nM]	also measured
B1	–	–	–	–	binding result (LUXMYB [1]): binds
B2	120 ± 1	118 ± 10.6	164 ± 4.2	17 ± 2.1	–
B3	50 ± 2.4	93 ± 5.8	105 ± 11.8	37 ± 2.9	binding result (ELF3): no binding; binding result (ELF4): no binding; binding result (LUXFL;ELF3;ELF4): binds
B4	50 ± 1.8	98 ± 2.9	336 ± 4.8	6.5 ± 1.4	–
B5	63 ± 3.1	93 ± 3.5	204 ± 6.7	14 ± 1.8	–
B6	137 ± 13	178 ± 3.5	–	43 ± 4.2	–
B7	–	–	–	–	binding result [3]: binds
B8	–	–	–	–	binding result (LUXMYB [4]): binds

Reference: article PMC7104408 (Proceedings of the National Academy of Sciences of the …, 2019)
